According to US20200140512A1 (Xencor, published 2020):
Positions count from the first letter of the chain named. Names may count otherwise. Blank lines part the entries; values can stand above or below the binder they belong to.

Legend:
human PD-1-His [1] = molecular target: T1, human PD-1-His (human, UniProt Q15116 25-167, limits assumed); experiment: Octet, antibody on AHC biosensors, multiple concentrations of PD-1-His
T1 construct: not shown: His tag

human PD-1-His [2] = molecular target: T1, human PD-1-His; experiment: Octet (Example 7A, told again)
human PD-1-His [3] = molecular target: T1, human PD-1-His; experiment: Octet, antibody captured on anti-human Fc (AHC) biosensors, dipped into multiple concentrations of PD-1-His
[4] = molecular target: T2, PD-1 (antigen of the Octet affinity measurements of Example 9 and of the affinities quoted afterwards) (UniProt Q15116 25-167, limits assumed); experiment: Octet affinity screen, bivalent IgG1 format
T2 construct: most likely human PD-1-His
T2 sequence (Q15116 25-167 limits assumed): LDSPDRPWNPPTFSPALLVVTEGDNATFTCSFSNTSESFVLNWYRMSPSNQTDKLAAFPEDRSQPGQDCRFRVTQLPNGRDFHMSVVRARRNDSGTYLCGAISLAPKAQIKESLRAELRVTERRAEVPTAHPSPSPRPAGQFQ

T1 sequence (Q15116 25-167 limits assumed): as above

binding result (human PD-1-His [1]): binds
B1: XENP28519 (bivalent mAb based on humanized mAb A) (antibody, human IgG1, kappa, V domains shown)
VH: QVQLQESGPGLVKPSQTLSLTCTVSGHSITSDYAWNWIRQPPGKKLEWIGYISYSGYTTYNPSLKSRVTISRDTSKNQFSLKLSSVTAADTAVYFCARDLDYGPWFAYWGQGTLVTVSS
VL: DIQMTQSPSSLSASVGDRVTITCRASENIHNYLAWYQQKPGKSPKLLVYNVKTLADGVPSRFSGSGSGTDYTLTISSLQPEDFATYYCQHFWSSPWTFGGGTKVEIKR
notes: also called anti-PD-1 mAb XENP28519

binding result (human PD-1-His [2]): binds
B2: XENP28536 (bivalent mAb based on humanized mAb C, mAb C[PD-1]_H1L1) (antibody, human IgG1, V domains shown)
VH: EVQLVESGGGLVQPGGSLRLSCAASGFTFSSFGMHWVRQAPGKGLEWVSYISSGSSIIYYADSVKGRFTISRDNAKNSLYLQMNSLRAEDTAVYYCARGGRLVWSPDYWGQGTLVTVSS
VL: DIVMTQSPDSLAVSLGERATINCKSSQSLLNSGNQKNYLTWYQQKPGQPPKLLIYWASTRESGVPDRFTGSGSGTDFTLTISSLQAEDVAVYYCQNDYSYPFTFGSGTKLEIK
notes: also called WT

binding result (human PD-1-His [3]): no binding
B3: XENP28538 (humanized variant of anti-PD-1 mAb C, bivalent human IgG1) (antibody, V domains shown)
VH: B2 VH with Q13K, S49G, S63P, A75S, S78T, R87K, A88T
VL: DIVMTQSPDSLAVSLGERATINCKSSQSLLNSGNQKNYLTWYQQKPGQPPKLLIYWASTRESGVPDRFTGSGSGTDFTLTISSLQAEDVAVYYCQNDYSYPFTFGSGTKLEIKR
notes: Human IgG1 with E233P/L234V/L235A/G236del/S267K

fold improved affinity over WT [4]: 2 fold
B4: mAb C[PD-1]_H1_L1.1 (bivalent IgG1 format with E233P/L234V/L235A/G236_/S267K ablation variants) (antibody, V domains shown)
VH: B2 VH
VL: B3 VL with N31H
notes: Human IgG1 with ablation variants; copies: 2 + 2

fold improved affinity over WT [4]: > 2 fold
B5: mab_C[PD-1]_H1_L1.3 (bivalent IgG1 format with E233P/L234V/L235A/G236_/S267K ablation variants) (antibody, V domains shown)
VH: B2 VH
VL: B3 VL with N31S
notes: as for B4

binding result (human PD-1-His [3]): no binding
B6: XENP28539 (humanized variant of anti-PD-1 mAb C, bivalent human IgG1) (antibody, V domains shown)
VH: B2 VH with Q13K, S49G, S63P, A75S, S78T, R87K, A88T
VL: DIVMTQSPLSLPVTPGEPASISCRSSQSLLNSGNQKNYLTWYLQKPGQPPQLLIYWASTRESGVPDRFTGSGSGTDFTLKISRVEAEDVGVYYCQNDYSYPFTFGSGTKLEIKR
notes: as for B3
